Reference: patent US12415847B2, “ApoM-Fc fusion proteins for treating lung diseases” (Children's Medical Center Corporation, priority 2018, dated 2025)

Legend:
HUVECs = experiment: Trans-endothelial electrical resistance (TEER); type: cell-based, human; conditions: 4 μg/well, 250 nM S1P, 6 hour time point
Description: FIG. 4. Human and Mouse ApoM-Fc-S1P enhanced endothelial Barrier Protection. Human ApoMFc-S1P (4 μg/well, 250 nM S1P), Mouse ApoMFc-S1P (4 μg/well, 250 nM S1P), or BSA-S1P (250 nM S1P; Positive Control) were analyzed using transepithelial/transendothelial electrical resistance (TEER). The results of TEER analysis of HUVECs at the 6 hour time point are shown. BSA-S1P is the well-established activator of the S1PR1 and it was tested whether Human ApoMFc-S1P, Mouse ApoMFc-S1P gave equivalent induction of receptor activation. All results are normalized to individual well baselines (baseline=1), expressed as the mean of triplicate wells, and Standard Deviation (S.D.) is expressed as gray vertical bars over the course of the data set. […]
0.1 ml of Human Umbilical Vascular Endothelial Cells (HUVECS; 200,000 cells/ml in EGM-2 culture medium, Lonza) were seeded into a 96 well electrical conductance chamber (ECIS Cultureware; Applied Biophysics, Inc) pre-coated with 1% Fibronectin resuspended in Saline. After overnight incubation at 37° C./5% CO2, the 96-well plate was placed on the ECIS reader (Applied Biophysics; Ztheta 96-well array station) and baseline resistance was established which represents the quality of Endothelial junction strength or Endothelial barrier function. […]

S1P1 receptor [1] = target: T1, S1P1 receptor (Homo sapiens, UniProt P21453); experiment: Nanobit split luciferase assay, Gi-alpha coupling; type: cell-based; conditions: transfected 293A cells; 1000 nM-0.3 nM S1P
T1 construct: expressed in transfected cells; host or cells: Human 293A cells, transient PEI transfection
Description: (§1) FIGS. 5A-5B. Nanobit analysis of Human ApoMFc-S1P, Mouse ApoMFc-S1P, or BSA-S1P (Positive Control). […] BSA-S1P is the well-established activator of the S1PR1 and it was tested whether Human ApoMFc-S1P, Mouse ApoMFc-S1P gave equivalent induction of receptor activation. Data are the means of triplicate wells with the baseline (pre-stimulation) signal subtracted from the final luciferase signal and graphs are expressed with standard deviation.
(§2) The S1P receptors are members of the G-protein coupled receptor (GPCR) superfamily. Receptor activation is characterized by immediate activation of a G-protein complex (alpha-beta-gamma) that activates multiple intracellular signaling pathways and then secondary activation of coupling to the protein beta-arrestin, which may cause receptor internalization and desensitization as well as activation of other intracellular signaling pathways. […]
(§3) There are two general forms of this assay. […] Upon activation of the GPCR, the G-Protein alpha-beta-gamma complex […] and Luciferase activity may be detected by measuring emitted light in the presence of luciferase substrate (luciferin). […] It is notable that G-Protein assay results in decreased relative fluorescence with increased receptor activation, while the Beta-arrestin coupling assay results in increased relative fluorescence with increased receptor activation. […]
Target sequence in this assay (P21453 whole entry): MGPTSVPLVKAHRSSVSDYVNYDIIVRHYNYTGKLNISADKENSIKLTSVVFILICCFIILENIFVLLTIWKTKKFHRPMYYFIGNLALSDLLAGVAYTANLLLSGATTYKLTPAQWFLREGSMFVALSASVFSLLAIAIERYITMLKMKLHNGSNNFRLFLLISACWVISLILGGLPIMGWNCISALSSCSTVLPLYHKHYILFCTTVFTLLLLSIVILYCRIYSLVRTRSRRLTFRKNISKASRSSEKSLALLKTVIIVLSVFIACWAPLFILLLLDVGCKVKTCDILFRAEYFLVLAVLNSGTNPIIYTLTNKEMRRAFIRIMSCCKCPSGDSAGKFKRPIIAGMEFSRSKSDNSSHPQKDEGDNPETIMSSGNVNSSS

S1P1 receptor [2] = target: T1, S1P1 receptor; experiment: Nanobit split luciferase assay, beta-arrestin coupling; type: cell-based; conditions: transfected 293A cells; 1000 nM-0.3 nM S1P
Description: as §1, §2, §3
Target sequence in this assay (P21453 whole entry): as above
Target sequence in this assay (P49407 whole entry partner): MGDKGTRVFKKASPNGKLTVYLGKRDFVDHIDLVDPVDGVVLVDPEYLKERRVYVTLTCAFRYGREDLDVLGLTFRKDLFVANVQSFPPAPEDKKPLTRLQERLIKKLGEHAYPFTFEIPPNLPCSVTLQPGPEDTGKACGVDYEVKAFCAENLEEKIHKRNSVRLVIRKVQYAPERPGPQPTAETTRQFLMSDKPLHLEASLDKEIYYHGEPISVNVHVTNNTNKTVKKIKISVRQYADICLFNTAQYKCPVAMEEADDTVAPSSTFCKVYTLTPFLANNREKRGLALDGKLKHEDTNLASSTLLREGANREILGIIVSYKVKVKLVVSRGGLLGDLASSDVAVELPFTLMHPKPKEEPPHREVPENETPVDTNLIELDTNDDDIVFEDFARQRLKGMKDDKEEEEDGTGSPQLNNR

[3] = free ApoM not associated with HDL; Faber et al. 2006; cited from earlier work

activation of Gi-alpha coupling to the S1P1 receptor (S1P1 receptor [1])	activation of beta-arrestin coupling to the S1P1 receptor (S1P1 receptor [2])	Molecule	endothelial barrier protection (TEER) (HUVECs)	half-life [3]
equivalently activates	equivalently activates	Mouse ApoMFc-S1P: Mouse ApoM-mouse IgG1Fc fusion (mApoM-Fc) loaded with S1P (protein) NQCPEHSQLTALGMDDTETPEPHLGLWYFIAGAAPTTEELATFDPVDNIVFNMAAGSAPRQLQLRATIRTKSGVCVPRKWTYRLTEGKGNMELRTEGRPDMKTDLFSSSCPGGIMLKETGQGYQRFLLYNRSPHPPEKCVEEFKSLTSCLDFKAFLVTPRNQEACPLSSKWISSASSAKTTPPSVYPLAPGSAAQTNSMVTLGCLVKGYFPEPVTVTWNSGSLSSGVHTFPAVLQSDLYTLSSSVTVPSSTWPSETVTCNVAHPASSTKVDKKIVPRDCGCKPCICTVPEVSSVFIFPPKPKDVLTITLTPKVTCVVVDISKDDPEVQFSWFVDDVEVHTAQTQPREEQFNSTFRSVSELPIMHQDWLNGKEFKCRVNSAAFPAPIEKTISKTKGRPKAPQVYTIPPPKEQMAKDKVSLTCMITDFFPEDITVEWQWNGQPAENYKNTQPIMDTDGSYFVYSKLNVQKSNWEAGNTFTCSVLHEGLHNHHTEKSLSHSPGK	enhance endothelial Barrier Protection	
		Free ApoM: free ApoM that is not associated with HDL; 26-kDa protein (protein, UniProt O95445 1-188, looked up) Apolipoprotein M: MFHQIWAALLYFYGIILNSIYQCPEHSQLTTLGVDGKEFPEVHLGQWYFIAGAAPTKEELATFDPVDNIVFNMAAGSAPMQLHLRATIRMKDGLCVPRKWIYHLTEGSTDLRTEGRPDMKTELFSSSCPGGIMLNETGQGYQRFLLYNRSPHPPEKCVEEFKSLTSCLDSKAFLLTPRNQEACELSNN		extremely short
